The values that follow come from paper PMC4911086 (PLoS ONE, 2016).

One assay has as its target RANKL (Homo sapiens) (UniProt O14788). Particulars: cited from earlier work.
The target of another assay is T1, recombinant human RANK (human, UniProt Q9Y6Q6 30-212).
T1 construct: human RANK, recombinant, R&D Systems cat# 683-RK; The vendor's product 683-RK is, as far as I recall, an Fc chimera of the RANK extracellular domain (human IgG1 Fc, C-terminal); also called rRANK; source: bought: R&D Systems (cat# 683-RK)
T1 sequence (looked up): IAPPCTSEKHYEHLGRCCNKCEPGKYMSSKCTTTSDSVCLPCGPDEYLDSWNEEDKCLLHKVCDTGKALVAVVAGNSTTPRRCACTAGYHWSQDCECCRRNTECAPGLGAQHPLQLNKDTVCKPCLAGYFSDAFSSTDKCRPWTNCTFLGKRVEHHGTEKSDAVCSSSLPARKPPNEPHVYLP
Nature of the assay: ELISA; polyvinyl 96-well plates coated with 500 ng/well recombinant human RANK; RANKL (500 ng/mL in PBS-T with 0.1% BSA) pre-incubated with serially diluted GM-0111 for about 16 hrs at 4°C, then 1 hr at 37°C on the RANK-coated wells; bound RANKL detected with anti-RANKL antibody and HRP-conjugated anti-goat IgG, absorbance at 450 nm. The following applies: both partners purified.

On to OPG (from UniProt O00300), for which the Kd – broadly, the constant that tells how readily two partners part at equilibrium – with RANKL (Homo sapiens) is 4.24 nM.

B1: recombinant human RANKL (ligand, UniProt O14788 140-317, looked up)
chain: IRAEKAMVDGSWLDLAKRSKLEAQPFAHLTINATDIPSGSHKVSLSSWYHDRGWAKISNMTFSNGKLIVNQDGFYYLYANICFRHHETSGDLATEYLQLMVYVTKTSIKIPSSHTLMKGGSTKYWSGNSEFHFYSINVGGFFKLRSGEEISIEVSNPSLLDPDQDATYFGAFKVRDID
notes: The vendor's product is, as far as I recall, a soluble extracellular fragment of human RANKL; also called rRANKL; source: bought: R&D Systems (cat# 390-TN)
As for B1, the binding result with recombinant human RANK is “binds”.
